Each block holds one molecule with its values, some of them ahead of it.
Key:
[1] = molecular target: recombinant His-tagged VWF-A1 domain (amino acids Q1238-D1471) (human); assay: SPR; Biacore 3000, 25 C; VWF-A1 immobilised (1500 RU); fH 40 to 640 nM, 20 uL/min; fitted to two-state model; apparent KD
[2] = molecular target: plasma purified human VWF (human); assay: SPR; Biacore 3000, 25 C; VWF immobilised by amine coupling (2100 RU); fH 5 to 320 nM in HBS with 50 uM ZnCl2, 30 uL/min; global fit to two-state model; apparent KD
[3] = molecular target: recombinant VWF-A2 as used in the ELISA and Biacore experiments (human) (UniProt P04275); assay: SPR; Biacore 3000, 25 C; VWF-A2 (1000 RU) or VWF-A3 (800 RU) immobilised; fH 40 to 640 nM, 20 uL/min; for VWF-A2 responses at equilibrium fitted to a one-site binding isotherm
[4] = molecular target: T1, plasma purified human factor H (human, UniProt P08603 19-1231); assay: co-IP; plasma-purified fH (30 nM) incubated with His-tagged VWF-A1, -A2 (E. coli or HEK 293), -A3 or Myc-tagged VWF-BC (100 nM); precipitated with anti-fH antibody or IgG; blot anti-VWF; conditions: both partners purified
T1 construct: complement factor H, human, purified from plasma (150 kD, 20 SCRs); also the endogenous protein in normal serum; also called fH; complement factor H; source: bought: Complement Technology Inc., plasma purified; endogenous, normal human serum

[5] = molecular target: T2, truncated fH F3 with SCRs 1-15, amino acids M1-G928 (human, UniProt P08603 19-928); assay: pull-down; GST-VWF-A2 (100 nM) incubated with recombinant F4, F3, F2 or F1 (30 nM each); glutathione agarose beads, overnight 4 C; blot polyclonal or monoclonal (90X) anti-fH; conditions: both partners purified
T2 construct: signal peptide in the construct; complement factor H, human, SCRs 1-15, amino acids M1-G928, in pSecTag2B His tag vector; source: HEK 293, stably transfected, secreted into serum-free medium, purified (Ni-NTA)

[6] = molecular target: T3, truncated fH F2 with SCRs 1-10, amino acids M1-E625 (human, UniProt P08603 19-625); assay: as above; conditions: both partners purified
T3 construct: signal peptide in the construct; complement factor H, human, SCRs 1-10, amino acids M1-E625, in pSecTag2B His tag vector; source: HEK 293, stably transfected, secreted into serum-free medium, purified (Ni-NTA)

[7] = molecular target: T4, recombinant full-length wild type human fH (F4 with SCRs 1-20, amino acids M1-R1231) (human, UniProt P08603 19-1231); assay: as above; conditions: both partners purified
T4 construct: signal peptide in the construct; complement factor H, human, SCRs 1-20, amino acids M1-R1231, in pSecTag2B His tag vector; also called full-length recombinant fH; source: HEK 293, stably transfected, secreted into serum-free medium, purified (Ni-NTA)
T4 sequence (P08603 19-1231): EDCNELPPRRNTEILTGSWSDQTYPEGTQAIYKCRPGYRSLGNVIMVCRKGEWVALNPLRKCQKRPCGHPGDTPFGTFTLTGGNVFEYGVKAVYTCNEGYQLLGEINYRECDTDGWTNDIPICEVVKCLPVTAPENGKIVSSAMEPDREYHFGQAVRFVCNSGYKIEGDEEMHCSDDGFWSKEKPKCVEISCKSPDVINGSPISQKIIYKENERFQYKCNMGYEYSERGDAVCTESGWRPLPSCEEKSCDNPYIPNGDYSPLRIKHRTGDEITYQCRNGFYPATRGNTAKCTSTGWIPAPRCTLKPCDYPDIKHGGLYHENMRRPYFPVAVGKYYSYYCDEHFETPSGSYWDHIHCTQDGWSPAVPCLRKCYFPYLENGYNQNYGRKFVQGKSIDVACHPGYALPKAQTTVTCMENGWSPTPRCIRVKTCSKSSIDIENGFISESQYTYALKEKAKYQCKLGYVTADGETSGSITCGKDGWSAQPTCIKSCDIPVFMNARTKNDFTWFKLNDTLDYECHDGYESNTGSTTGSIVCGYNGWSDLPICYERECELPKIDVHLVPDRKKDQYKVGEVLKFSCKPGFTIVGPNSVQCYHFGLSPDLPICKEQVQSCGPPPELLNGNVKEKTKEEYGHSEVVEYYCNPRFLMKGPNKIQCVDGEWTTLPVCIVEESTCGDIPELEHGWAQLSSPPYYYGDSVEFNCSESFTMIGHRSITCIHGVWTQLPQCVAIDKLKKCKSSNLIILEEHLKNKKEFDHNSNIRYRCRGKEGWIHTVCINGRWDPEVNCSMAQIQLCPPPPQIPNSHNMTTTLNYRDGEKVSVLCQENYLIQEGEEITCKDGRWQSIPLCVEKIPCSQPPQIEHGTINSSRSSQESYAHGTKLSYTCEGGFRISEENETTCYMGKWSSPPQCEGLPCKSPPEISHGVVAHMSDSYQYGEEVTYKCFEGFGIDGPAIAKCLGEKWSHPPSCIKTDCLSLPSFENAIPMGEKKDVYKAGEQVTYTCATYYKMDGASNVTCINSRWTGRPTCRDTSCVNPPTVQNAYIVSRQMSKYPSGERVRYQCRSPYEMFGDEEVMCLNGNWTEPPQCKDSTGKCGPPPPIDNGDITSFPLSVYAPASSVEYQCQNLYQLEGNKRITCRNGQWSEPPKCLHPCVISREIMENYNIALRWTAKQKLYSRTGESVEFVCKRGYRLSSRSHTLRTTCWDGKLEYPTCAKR

T1 sequence (P08603 19-1231): as above
T2 sequence (P08603 19-928): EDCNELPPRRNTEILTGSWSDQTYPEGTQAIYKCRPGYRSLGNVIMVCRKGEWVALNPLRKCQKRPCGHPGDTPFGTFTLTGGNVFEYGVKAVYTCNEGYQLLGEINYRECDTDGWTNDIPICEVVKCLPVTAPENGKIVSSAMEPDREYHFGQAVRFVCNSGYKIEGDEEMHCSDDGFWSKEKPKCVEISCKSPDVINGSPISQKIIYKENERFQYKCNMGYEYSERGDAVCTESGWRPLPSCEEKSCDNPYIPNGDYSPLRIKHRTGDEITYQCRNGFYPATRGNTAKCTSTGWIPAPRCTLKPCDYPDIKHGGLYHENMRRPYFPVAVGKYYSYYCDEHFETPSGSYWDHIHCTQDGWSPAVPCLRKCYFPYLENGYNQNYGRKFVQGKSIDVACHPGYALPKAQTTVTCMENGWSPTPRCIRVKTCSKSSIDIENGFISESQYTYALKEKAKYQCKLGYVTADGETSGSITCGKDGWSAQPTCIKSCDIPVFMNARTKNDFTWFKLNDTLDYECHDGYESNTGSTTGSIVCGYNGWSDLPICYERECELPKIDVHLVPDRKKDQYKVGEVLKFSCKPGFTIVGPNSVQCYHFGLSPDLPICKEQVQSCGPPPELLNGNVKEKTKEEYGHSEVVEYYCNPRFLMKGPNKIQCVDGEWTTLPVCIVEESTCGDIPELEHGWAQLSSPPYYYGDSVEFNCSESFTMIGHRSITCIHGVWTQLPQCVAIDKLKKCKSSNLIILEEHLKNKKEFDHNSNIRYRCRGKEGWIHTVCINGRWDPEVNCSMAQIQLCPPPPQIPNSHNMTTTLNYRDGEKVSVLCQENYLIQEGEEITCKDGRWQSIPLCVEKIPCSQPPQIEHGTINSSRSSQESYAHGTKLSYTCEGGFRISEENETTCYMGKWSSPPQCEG
T3 sequence (P08603 19-625): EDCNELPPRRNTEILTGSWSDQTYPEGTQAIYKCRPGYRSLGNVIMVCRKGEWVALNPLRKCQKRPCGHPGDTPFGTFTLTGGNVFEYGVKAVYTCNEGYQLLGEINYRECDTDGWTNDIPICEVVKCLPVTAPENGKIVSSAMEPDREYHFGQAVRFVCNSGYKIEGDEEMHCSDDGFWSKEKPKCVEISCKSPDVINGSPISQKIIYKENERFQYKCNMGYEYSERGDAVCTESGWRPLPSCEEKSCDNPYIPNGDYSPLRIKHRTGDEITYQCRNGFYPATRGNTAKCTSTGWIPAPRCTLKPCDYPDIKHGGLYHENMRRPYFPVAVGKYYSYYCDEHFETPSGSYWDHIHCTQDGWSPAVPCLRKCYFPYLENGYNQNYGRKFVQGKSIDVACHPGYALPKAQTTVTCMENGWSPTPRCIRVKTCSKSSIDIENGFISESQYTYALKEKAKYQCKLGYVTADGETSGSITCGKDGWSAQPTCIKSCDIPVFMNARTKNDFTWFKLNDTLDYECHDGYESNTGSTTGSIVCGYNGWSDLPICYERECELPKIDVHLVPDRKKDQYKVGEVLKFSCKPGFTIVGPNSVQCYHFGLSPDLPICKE

B1: recombinant His-tagged VWF-A2 (amino acids G1481-R1668), purified from transfected E. coli (domain or fragment)
chain: GLLGVSTLGPKRNSMVLDVAFVLEGSDKIGEADFNRSKEFMEEVIQRMDVGQDSIHVTVLQYSYMVTVEYPFSEAQSKGDILQRVREIRYQGGNRTNTGLALRYLSDHSFLVSQGDREQAPNLVYMVTGNPASDEIKRLPGDIQVVPIGVGPNANVQELERIGWPNAPILIQDFETLPREAPDLVLQR
notes: von Willebrand factor A2 domain, amino acids G1481-R1668; source: E. coli, purified (Ni-NTA)
- binding result [4]: binds

B2: recombinant His-tagged VWF-A2 (amino acids P1480-G1672), purified from transfected HEK 293 cells (domain or fragment)
chain: PGLLGVSTLGPKRNSMVLDVAFVLEGSDKIGEADFNRSKEFMEEVIQRMDVGQDSIHVTVLQYSYMVTVEYPFSEAQSKGDILQRVREIRYQGGNRTNTGLALRYLSDHSFLVSQGDREQAPNLVYMVTGNPASDEIKRLPGDIQVVPIGVGPNANVQELERIGWPNAPILIQDFETLPREAPDLVLQRCCSG
notes: von Willebrand factor A2 domain, amino acids P1480-G1672, in pSecTag2B His-tag vector; also called His-tagged A2; source: HEK 293, purified (Ni-NTA)
- binding result [4]: binds

Further lines, results first:

- Kd [1]: 161 nM
- ka1 (binding step, two-state model) [1]: 53600 M⁻¹ s⁻¹
- ka2 (forward rate, conformational change step) [1]: 0.00797 s⁻¹
- kd1 (binding step, two-state model) [1]: 0.0358 s⁻¹
- kd2 (backward rate, conformational change step) [1]: 0.00254 s⁻¹
- Kd [2]: 32.9 nM
- ka1 (binding step, two-state model) [2]: 60000 M⁻¹ s⁻¹
- ka2 (forward rate, conformational change step) [2]: 0.007 s⁻¹
- kd1 (binding step, two-state model) [2]: 0.0158 s⁻¹
- kd2 (backward rate, conformational change step) [2]: 0.0009 s⁻¹
- Kd [3]: 147 nM
Molecule: plasma purified human factor H (from UniProt P08603 19-1231) (natural protein)

- binding result [5]: binds
- binding result [6]: binds
- binding result [7]: binds
B3: GST-VWF-A2 fusion protein (amino acids P1480-G1672) (domain or fragment)
chain: PGLLGVSTLGPKRNSMVLDVAFVLEGSDKIGEADFNRSKEFMEEVIQRMDVGQDSIHVTVLQYSYMVTVEYPFSEAQSKGDILQRVREIRYQGGNRTNTGLALRYLSDHSFLVSQGDREQAPNLVYMVTGNPASDEIKRLPGDIQVVPIGVGPNANVQELERIGWPNAPILIQDFETLPREAPDLVLQRCCSG
notes: von Willebrand factor A2 domain, amino acids P1480-G1672, in pGEX-2T GST vector; also called GST-A2; recombinant VWF-A2; source: E. coli, purified (glutathione agarose beads)

— publication PMC3753316, “The Interaction between Factor H and Von Willebrand Factor” (PLoS ONE, 2013)
